# Experimental data taken from patent US12630600B2 (MEDIMMUNE LIMITED, priority 2022, dated 2026).
# Starred links: 1 amine or outer side, 2 acyl side, 3 side chain; linkers in the order of their positions; H or OH if unused. Non-standard residues stand in square brackets, D forms with d. Groups on a side chain read outwards from the residue. No end group written: not given here. *: point of attachment. C20 diacid = O=C(O)CCCCCCCCCCCCCCCCCCC(=O)*; C18 diacid = O=C(O)CCCCCCCCCCCCCCCCC(=O)*; γGlu = O=C(O)[C@H](CCC(=O)[*:2])N[*:1]; αMeF = C[C@](N)(Cc1ccccc1)C(=O)O; AEEA = NCCOCCOCC(=O)O; Aib = CC(C)(N)C(=O)O
# B1: Peptide 24 (peptide)
# peptide: H[Aib]HGS[αMeF]TSDVSK[αMeF]LDSK([AEEA-AEEA-γGlu-C18 diacid])AAQD[αMeF]VQ[Aib]IANT-NH2
# modifications: N-terminus assumed
# SMILES: CC[C@H](C)[C@H](NC(=O)C(C)(C)NC(=O)[C@H](CCC(N)=O)NC(=O)[C@@H](NC(=O)[C@](C)(Cc1ccccc1)NC(=O)[C@H](CC(=O)O)NC(=O)[C@H](CCC(N)=O)NC(=O)[C@H](C)NC(=O)[C@H](C)NC(=O)[C@H](CCCCNC(=O)COCCOCCNC(=O)COCCOCCNC(=O)CC[C@H](NC(=O)CCCCCCCCCCCCCCCCC(=O)O)C(=O)O)NC(=O)[C@H](CO)NC(=O)[C@H](CC(=O)O)NC(=O)[C@H](CC(C)C)NC(=O)[C@](C)(Cc1ccccc1)NC(=O)[C@H](CCCCN)NC(=O)[C@H](CO)NC(=O)[C@@H](NC(=O)[C@H](CC(=O)O)NC(=O)[C@H](CO)NC(=O)[C@@H](NC(=O)[C@](C)(Cc1ccccc1)NC(=O)[C@H](CO)NC(=O)CNC(=O)[C@H](Cc1c[nH]cn1)NC(=O)C(C)(C)NC(=O)[C@@H](N)Cc1c[nH]cn1)[C@@H](C)O)C(C)C)C(C)C)C(=O)N[C@@H](C)C(=O)N[C@@H](CC(N)=O)C(=O)N[C@H](C(N)=O)[C@@H](C)O
# B2: Peptide 22 (peptide)
# peptide: H[Aib]HGS[αMeF]TSDVSK[αMeF]LDSK([AEEA-AEEA-γGlu-γGlu-C20 diacid])AAQD[αMeF]VESIANT-NH2
# modifications: N-terminus assumed
# SMILES: CC[C@H](C)[C@H](NC(=O)[C@H](CO)NC(=O)[C@H](CCC(=O)O)NC(=O)[C@@H](NC(=O)[C@](C)(Cc1ccccc1)NC(=O)[C@H](CC(=O)O)NC(=O)[C@H](CCC(N)=O)NC(=O)[C@H](C)NC(=O)[C@H](C)NC(=O)[C@H](CCCCNC(=O)COCCOCCNC(=O)COCCOCCNC(=O)CC[C@H](NC(=O)CC[C@H](NC(=O)CCCCCCCCCCCCCCCCCCC(=O)O)C(=O)O)C(=O)O)NC(=O)[C@H](CO)NC(=O)[C@H](CC(=O)O)NC(=O)[C@H](CC(C)C)NC(=O)[C@](C)(Cc1ccccc1)NC(=O)[C@H](CCCCN)NC(=O)[C@H](CO)NC(=O)[C@@H](NC(=O)[C@H](CC(=O)O)NC(=O)[C@H](CO)NC(=O)[C@@H](NC(=O)[C@](C)(Cc1ccccc1)NC(=O)[C@H](CO)NC(=O)CNC(=O)[C@H](Cc1c[nH]cn1)NC(=O)C(C)(C)NC(=O)[C@@H](N)Cc1c[nH]cn1)[C@@H](C)O)C(C)C)C(C)C)C(=O)N[C@@H](C)C(=O)N[C@@H](CC(N)=O)C(=O)N[C@H](C(N)=O)[C@@H](C)O
# B3: Peptide 2 (peptide)
# peptide: HSQGS[αMeF]TSDVSK[αMeF]LDSK([AEEA-AEEA-γGlu-C20 diacid])AAQD[αMeF]VQWIANT-NH2
# modifications: N-terminus assumed
# SMILES: CC[C@H](C)[C@H](NC(=O)[C@H](Cc1c[nH]c2ccccc12)NC(=O)[C@H](CCC(N)=O)NC(=O)[C@@H](NC(=O)[C@](C)(Cc1ccccc1)NC(=O)[C@H](CC(=O)O)NC(=O)[C@H](CCC(N)=O)NC(=O)[C@H](C)NC(=O)[C@H](C)NC(=O)[C@H](CCCCNC(=O)COCCOCCNC(=O)COCCOCCNC(=O)CC[C@H](NC(=O)CCCCCCCCCCCCCCCCCCC(=O)O)C(=O)O)NC(=O)[C@H](CO)NC(=O)[C@H](CC(=O)O)NC(=O)[C@H](CC(C)C)NC(=O)[C@](C)(Cc1ccccc1)NC(=O)[C@H](CCCCN)NC(=O)[C@H](CO)NC(=O)[C@@H](NC(=O)[C@H](CC(=O)O)NC(=O)[C@H](CO)NC(=O)[C@@H](NC(=O)[C@](C)(Cc1ccccc1)NC(=O)[C@H](CO)NC(=O)CNC(=O)[C@H](CCC(N)=O)NC(=O)[C@H](CO)NC(=O)[C@@H](N)Cc1c[nH]cn1)[C@@H](C)O)C(C)C)C(C)C)C(=O)N[C@@H](C)C(=O)N[C@@H](CC(N)=O)C(=O)N[C@H](C(N)=O)[C@@H](C)O
# B4: Peptide 29 (peptide)
# peptide: H[Aib]QGTFTSDVSK[αMeF]LDSK([AEEA-AEEA-γGlu-C18 diacid])RA[Aib]DFVQWLL[Aib]T-OH
# modifications: N-terminus assumed
# SMILES: CC(C)C[C@H](NC(=O)[C@H](Cc1c[nH]c2ccccc12)NC(=O)[C@H](CCC(N)=O)NC(=O)[C@@H](NC(=O)[C@H](Cc1ccccc1)NC(=O)[C@H](CC(=O)O)NC(=O)C(C)(C)NC(=O)[C@H](C)NC(=O)[C@H](CCCNC(=N)N)NC(=O)[C@H](CCCCNC(=O)COCCOCCNC(=O)COCCOCCNC(=O)CC[C@H](NC(=O)CCCCCCCCCCCCCCCCC(=O)O)C(=O)O)NC(=O)[C@H](CO)NC(=O)[C@H](CC(=O)O)NC(=O)[C@H](CC(C)C)NC(=O)[C@](C)(Cc1ccccc1)NC(=O)[C@H](CCCCN)NC(=O)[C@H](CO)NC(=O)[C@@H](NC(=O)[C@H](CC(=O)O)NC(=O)[C@H](CO)NC(=O)[C@@H](NC(=O)[C@H](Cc1ccccc1)NC(=O)[C@@H](NC(=O)CNC(=O)[C@H](CCC(N)=O)NC(=O)C(C)(C)NC(=O)[C@@H](N)Cc1c[nH]cn1)[C@@H](C)O)[C@@H](C)O)C(C)C)C(C)C)C(=O)N[C@@H](CC(C)C)C(=O)NC(C)(C)C(=O)N[C@H](C(=O)O)[C@@H](C)O
# B5: Peptide 25 (peptide)
# peptide: H[Aib]HGS[αMeF]TSDVSK[αMeF]LDSK([AEEA-AEEA-γGlu-γGlu-C20 diacid])AAQD[αMeF]VQ[Aib]IANT-NH2
# B6: Peptide 23 (peptide)
# peptide: H[Aib]HGS[αMeF]TSDVSK[αMeF]LDSK([AEEA-AEEA-γGlu-C18 diacid])AAQD[αMeF]VESIANT-NH2
# modifications: N-terminus assumed
# SMILES: CC[C@H](C)[C@H](NC(=O)[C@H](CO)NC(=O)[C@H](CCC(=O)O)NC(=O)[C@@H](NC(=O)[C@](C)(Cc1ccccc1)NC(=O)[C@H](CC(=O)O)NC(=O)[C@H](CCC(N)=O)NC(=O)[C@H](C)NC(=O)[C@H](C)NC(=O)[C@H](CCCCNC(=O)COCCOCCNC(=O)COCCOCCNC(=O)CC[C@H](NC(=O)CCCCCCCCCCCCCCCCC(=O)O)C(=O)O)NC(=O)[C@H](CO)NC(=O)[C@H](CC(=O)O)NC(=O)[C@H](CC(C)C)NC(=O)[C@](C)(Cc1ccccc1)NC(=O)[C@H](CCCCN)NC(=O)[C@H](CO)NC(=O)[C@@H](NC(=O)[C@H](CC(=O)O)NC(=O)[C@H](CO)NC(=O)[C@@H](NC(=O)[C@](C)(Cc1ccccc1)NC(=O)[C@H](CO)NC(=O)CNC(=O)[C@H](Cc1c[nH]cn1)NC(=O)C(C)(C)NC(=O)[C@@H](N)Cc1c[nH]cn1)[C@@H](C)O)C(C)C)C(C)C)C(=O)N[C@@H](C)C(=O)N[C@@H](CC(N)=O)C(=O)N[C@H](C(N)=O)[C@@H](C)O
# B7: Peptide 21 (peptide)
# peptide: H[Aib]HGS[αMeF]TSDVSK[αMeF]LDSK([γGlu-C18 diacid])AAQD[αMeF]VESIANT-NH2
# modifications: N-terminus assumed
# SMILES: CC[C@H](C)[C@H](NC(=O)[C@H](CO)NC(=O)[C@H](CCC(=O)O)NC(=O)[C@@H](NC(=O)[C@](C)(Cc1ccccc1)NC(=O)[C@H](CC(=O)O)NC(=O)[C@H](CCC(N)=O)NC(=O)[C@H](C)NC(=O)[C@H](C)NC(=O)[C@H](CCCCNC(=O)CC[C@H](NC(=O)CCCCCCCCCCCCCCCCC(=O)O)C(=O)O)NC(=O)[C@H](CO)NC(=O)[C@H](CC(=O)O)NC(=O)[C@H](CC(C)C)NC(=O)[C@](C)(Cc1ccccc1)NC(=O)[C@H](CCCCN)NC(=O)[C@H](CO)NC(=O)[C@@H](NC(=O)[C@H](CC(=O)O)NC(=O)[C@H](CO)NC(=O)[C@@H](NC(=O)[C@](C)(Cc1ccccc1)NC(=O)[C@H](CO)NC(=O)CNC(=O)[C@H](Cc1c[nH]cn1)NC(=O)C(C)(C)NC(=O)[C@@H](N)Cc1c[nH]cn1)[C@@H](C)O)C(C)C)C(C)C)C(=O)N[C@@H](C)C(=O)N[C@@H](CC(N)=O)C(=O)N[C@H](C(N)=O)[C@@H](C)O
# B8: Peptide 40 (peptide)
# peptide: H[Aib]QGTFTSDVSK[αMeF]LDSK([AEEA-AEEA-γGlu-C18 diacid])RAQDFVQWLL[Aib]T-OH
# modifications: N-terminus assumed
# SMILES: CC(C)C[C@H](NC(=O)[C@H](Cc1c[nH]c2ccccc12)NC(=O)[C@H](CCC(N)=O)NC(=O)[C@@H](NC(=O)[C@H](Cc1ccccc1)NC(=O)[C@H](CC(=O)O)NC(=O)[C@H](CCC(N)=O)NC(=O)[C@H](C)NC(=O)[C@H](CCCNC(=N)N)NC(=O)[C@H](CCCCNC(=O)COCCOCCNC(=O)COCCOCCNC(=O)CC[C@H](NC(=O)CCCCCCCCCCCCCCCCC(=O)O)C(=O)O)NC(=O)[C@H](CO)NC(=O)[C@H](CC(=O)O)NC(=O)[C@H](CC(C)C)NC(=O)[C@](C)(Cc1ccccc1)NC(=O)[C@H](CCCCN)NC(=O)[C@H](CO)NC(=O)[C@@H](NC(=O)[C@H](CC(=O)O)NC(=O)[C@H](CO)NC(=O)[C@@H](NC(=O)[C@H](Cc1ccccc1)NC(=O)[C@@H](NC(=O)CNC(=O)[C@H](CCC(N)=O)NC(=O)C(C)(C)NC(=O)[C@@H](N)Cc1c[nH]cn1)[C@@H](C)O)[C@@H](C)O)C(C)C)C(C)C)C(=O)N[C@@H](CC(C)C)C(=O)NC(C)(C)C(=O)N[C@H](C(=O)O)[C@@H](C)O
# Target: human GLP-1 receptor (human, UniProt P43220)
# Experiment: cell-based or functional assay
row,Binder,"cAMP production, hGLP-1R EC50 (pM)"
1,B1,82.8
2,B2,1230
3,B3,1280
4,B4,107
5,B5,726
6,B6,266
7,B7,378
8,B8,29.9

# Target: human glucagon receptor (human, UniProt P47871)
# Experiment: cell-based or functional assay
row,Binder,"cAMP production, hGluc-R EC50 (pM)"
1,B1,101
2,B2,2720
3,B3,4190
4,B4,629
5,B5,1310
6,B6,321
7,B7,68.8
8,B8,123
